Measurements published in the supplement of paper PMC9876800.

System: peptide library, one residue held at a place counted from the S/T acceptor
Assay: relative phosphorylation of the sub-library (ratio to the mean residue at this position); higher = residue favoured
Conditions: human
Method in brief: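 Relative sub-library phosphorylation, a ratio to the mean residue at that position, was obtained by phosphorimaging and densitometry of spots on streptavidin membranes. Before capture, purified recombinant kinases were incubated for 90 min under kinase-specific conditions with 50 μM biotinylated degenerate peptide sub-libraries and 50 μM ATP spiked with γ-32P-ATP. Each sub-library fixed one residue at one position around a central Ser/Thr.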

STK4, construct: Full length, sequence (Q13043 whole entry, looked up): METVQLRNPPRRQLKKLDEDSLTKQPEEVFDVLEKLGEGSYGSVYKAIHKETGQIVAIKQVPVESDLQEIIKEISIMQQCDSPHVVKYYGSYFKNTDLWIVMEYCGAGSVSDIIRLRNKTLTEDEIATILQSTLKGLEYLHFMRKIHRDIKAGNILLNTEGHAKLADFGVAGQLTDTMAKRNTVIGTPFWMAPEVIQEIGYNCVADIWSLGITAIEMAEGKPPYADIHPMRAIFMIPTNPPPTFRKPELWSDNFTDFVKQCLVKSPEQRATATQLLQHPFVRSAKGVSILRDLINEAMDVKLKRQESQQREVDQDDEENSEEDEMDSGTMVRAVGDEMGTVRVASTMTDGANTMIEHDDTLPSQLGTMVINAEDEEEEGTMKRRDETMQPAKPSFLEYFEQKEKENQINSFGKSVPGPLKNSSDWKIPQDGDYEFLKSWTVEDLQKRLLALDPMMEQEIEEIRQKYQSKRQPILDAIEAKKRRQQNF
MYO3B, construct: aa1-326, sequence (Q8WXR4 1-326, looked up): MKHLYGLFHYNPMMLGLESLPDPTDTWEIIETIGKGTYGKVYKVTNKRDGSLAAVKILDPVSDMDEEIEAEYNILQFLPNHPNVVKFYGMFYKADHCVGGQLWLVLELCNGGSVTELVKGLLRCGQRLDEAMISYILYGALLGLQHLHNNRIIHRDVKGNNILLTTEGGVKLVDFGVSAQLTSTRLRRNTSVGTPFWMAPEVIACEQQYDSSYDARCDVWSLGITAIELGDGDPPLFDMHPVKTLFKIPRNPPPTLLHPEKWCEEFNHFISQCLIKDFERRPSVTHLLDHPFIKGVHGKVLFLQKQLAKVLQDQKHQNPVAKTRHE
MAP3K19, construct: aa941-end, sequence (Q56UN5 941-1328, looked up): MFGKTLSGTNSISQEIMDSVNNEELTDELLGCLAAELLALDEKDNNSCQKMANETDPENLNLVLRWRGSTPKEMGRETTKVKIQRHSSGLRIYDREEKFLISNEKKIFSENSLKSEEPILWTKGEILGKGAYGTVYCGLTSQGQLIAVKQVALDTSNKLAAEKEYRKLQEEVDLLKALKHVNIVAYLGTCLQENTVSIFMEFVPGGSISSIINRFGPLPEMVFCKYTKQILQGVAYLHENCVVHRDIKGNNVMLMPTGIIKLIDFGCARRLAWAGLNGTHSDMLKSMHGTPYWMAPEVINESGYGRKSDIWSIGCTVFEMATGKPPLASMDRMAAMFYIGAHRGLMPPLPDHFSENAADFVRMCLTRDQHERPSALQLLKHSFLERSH
DSTYK, construct: Full length, sequence (Q6XUX3 whole entry, looked up): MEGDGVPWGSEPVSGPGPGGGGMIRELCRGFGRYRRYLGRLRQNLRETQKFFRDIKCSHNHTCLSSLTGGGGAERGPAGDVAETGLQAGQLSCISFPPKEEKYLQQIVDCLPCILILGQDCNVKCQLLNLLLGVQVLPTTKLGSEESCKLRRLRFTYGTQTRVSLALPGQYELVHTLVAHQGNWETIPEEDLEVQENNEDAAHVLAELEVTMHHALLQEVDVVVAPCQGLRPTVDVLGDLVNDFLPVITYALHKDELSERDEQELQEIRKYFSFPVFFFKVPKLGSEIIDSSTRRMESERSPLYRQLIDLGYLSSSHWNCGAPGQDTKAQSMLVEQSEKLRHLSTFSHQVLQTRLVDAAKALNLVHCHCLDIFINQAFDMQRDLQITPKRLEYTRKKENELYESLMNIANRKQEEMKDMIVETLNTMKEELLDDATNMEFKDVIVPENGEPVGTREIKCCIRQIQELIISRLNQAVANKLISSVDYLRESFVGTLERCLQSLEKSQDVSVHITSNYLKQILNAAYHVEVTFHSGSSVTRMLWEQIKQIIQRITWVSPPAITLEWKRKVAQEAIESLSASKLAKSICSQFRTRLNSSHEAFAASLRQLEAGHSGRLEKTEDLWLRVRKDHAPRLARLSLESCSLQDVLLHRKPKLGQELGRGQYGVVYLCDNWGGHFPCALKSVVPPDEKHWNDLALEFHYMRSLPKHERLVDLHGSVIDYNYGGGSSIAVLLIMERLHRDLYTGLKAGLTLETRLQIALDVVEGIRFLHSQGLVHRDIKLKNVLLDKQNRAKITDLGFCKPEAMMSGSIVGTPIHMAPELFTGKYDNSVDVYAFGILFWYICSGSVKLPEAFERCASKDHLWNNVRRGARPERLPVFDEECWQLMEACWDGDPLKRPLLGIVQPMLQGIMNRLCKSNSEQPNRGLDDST

STK4, construct: Full length (from UniProt Q13043)
relative phosphorylation
Conditions	at +1	at +2	at +3	at +4	at -1	at -2	at -3	at -4	at -5
A fixed	0.647	0.612	0.745	0.743	0.705	0.763	0.756	0.771	0.964
D fixed	0.276	0.533	0.669	0.779	1.43	1.46	1.24	1.07	1.35
E fixed	0.245	0.413	0.627	0.668	0.881	1.09	0.916	1.12	0.833
F fixed	0.995	0.677	0.965	0.892	0.877	1.66	1.05	1.02	0.98
G fixed	0.641	0.75	0.917	0.987	1.1	0.747	1.07	0.983	0.91
H fixed	0.703	1.33	1.12	1.05	1.26	1.15	1.06	1.27	1.04
I fixed	1.91	0.449	0.682	0.738	0.329	0.507	0.622	0.766	0.581
K fixed	0.639	3.53	1.85	1.5	1.93	0.591	0.963	1.08	1.15
L fixed	2.6	0.759	0.779	1.01	0.822	0.596	0.577	0.749	0.773
M fixed	2.59	0.588	0.673	0.918	0.735	1	0.658	0.742	0.757
N fixed	0.558	1.13	1.21	1.24	1.45	1.28	1.25	1.06	1.02
P fixed	0.196	0.926	1.19	1.13	0.897	0.681	0.992	0.674	1.33
Q fixed	0.685	1.23	1.07	1.3	1.17	1.03	1.35	1.34	1.24
R fixed	0.615	2.29	2.01	1.19	1.33	0.582	0.78	1.01	1.08
V fixed	1.08	0.779	0.702	0.789	0.397	0.561	0.646	0.954	0.861
W fixed	1.79	0.495	0.884	1.27	0.776	1.59	1.63	1.17	1.09
Y fixed	0.816	0.524	0.898	0.793	0.926	1.72	1.45	1.24	1.05
pThr fixed	0.822	1.04	0.958	0.825	0.594	1.02	0.978	0.889	0.769
pTyr fixed	0.627	0.715	0.937	0.899	0.908	2.04	1.39	0.975	1.09

MAP3K19, construct: aa941-end (from UniProt Q56UN5)
relative phosphorylation
Conditions	at +1	at +2	at +3	at +4	at -1	at -2	at -3	at -4	at -5
A fixed	0.458	0.666	0.903	0.975	0.853	1.02	0.971	1.05	1.27
D fixed	0.354	0.662	0.8	0.995	1.51	1.22	1.46	1.14	1.18
E fixed	0.386	0.508	0.765	0.822	0.913	0.851	1.03	1.1	0.864
F fixed	1.33	0.605	0.974	0.784	0.832	1.67	0.921	1.04	1.08
G fixed	0.531	0.809	1.15	1.23	0.867	0.977	1.16	1.16	1.24
H fixed	0.999	1.35	1.1	1.12	1.25	1.34	1.08	1.06	1.13
I fixed	1.7	0.677	0.741	0.801	0.586	0.558	0.65	0.701	0.679
K fixed	0.396	2.23	1.32	1.38	1	0.363	0.877	0.834	0.892
L fixed	2.2	0.55	0.818	0.817	1.13	0.506	0.725	0.883	0.736
M fixed	1.56	0.625	0.803	0.863	1.03	0.821	0.95	0.969	0.87
N fixed	0.52	1.43	1.22	1.05	1.25	1.08	1.39	1.1	1.05
P fixed	0.202	0.646	1.27	1.34	1.08	0.687	0.953	1.06	1.01
Q fixed	0.485	0.932	0.986	1.26	0.941	0.856	1.04	0.936	0.818
R fixed	0.433	3	1.18	1.05	0.914	0.484	0.923	0.888	1.02
V fixed	1.17	0.883	0.919	0.756	0.615	0.599	0.606	0.81	0.879
W fixed	2.7	0.673	1.06	0.916	0.841	1.79	1.21	1.21	1.28
Y fixed	1.57	0.755	0.982	0.838	1.38	2.18	1.05	1.05	1.02
pThr fixed	0.786	1.14	1.09	1.08	0.755	0.741	1.09	1.13	1.19
pTyr fixed	0.541	0.47	0.675	0.662	1.35	0.832	1.09	0.908	0.807

DSTYK, construct: Full length (from UniProt Q6XUX3)
relative phosphorylation
Conditions	at +1	at +2	at +3	at +4	at -1	at -2	at -3	at -4	at -5
A fixed	0.815	1.14	0.976	1.07	1.15	0.947	0.937	1.05	1.27
D fixed	0.5	0.992	0.68	0.984	1.7	2.48	1.41	1.8	1.74
E fixed	0.639	1.52	0.934	1.05	2	2.13	0.887	1.52	1.43
F fixed	1.11	0.465	1.04	0.754	0.584	0.828	2.04	1.12	0.944
G fixed	1.19	0.729	0.872	1.12	0.813	1.11	0.697	1.34	1.31
H fixed	0.834	1.08	1.25	0.955	0.924	1.15	1.02	0.96	1.12
I fixed	1.52	0.48	0.915	0.663	0.577	0.701	1.07	0.721	0.619
K fixed	0.434	1.85	1.09	1.29	0.93	0.366	0.453	0.718	1.05
L fixed	1.54	0.461	1.1	0.754	0.97	1.25	1.7	0.862	0.732
M fixed	1.55	0.667	0.977	0.837	0.911	1.1	1.36	0.744	0.698
N fixed	0.878	1.3	0.83	1.11	1.48	1.03	0.676	0.908	0.935
P fixed	0.218	0.587	0.738	1.45	0.324	0.228	0.513	0.777	0.916
Q fixed	1.21	1.29	1.02	1.15	1.31	1.04	0.692	0.793	0.773
R fixed	0.499	2.58	1.3	1.23	1.2	0.467	0.471	0.639	0.835
V fixed	1.65	0.685	1.08	0.734	0.667	0.765	0.6	0.598	0.733
W fixed	0.993	0.595	1.09	1.04	0.682	0.717	1.29	1.63	1.17
Y fixed	1.41	0.569	1.11	0.797	0.774	0.69	1.19	0.819	0.722
pThr fixed	1.23	1.43	0.787	1.09	0.845	1.66	0.996	1.03	1.04
pTyr fixed	2.22	0.801	0.882	0.912	1.84	1.21	1.13	0.961	1.09

MYO3B, construct: aa1-326 (from UniProt Q8WXR4)
relative phosphorylation
Conditions	at +1	at +2	at +3	at +4	at -1	at -2	at -3	at -4	at -5
A fixed	0.835	0.824	0.907	0.917	1.11	0.997	1.06	0.977	1.15
D fixed	0.195	0.346	0.286	0.408	0.679	0.489	0.538	0.954	0.81
E fixed	0.182	0.272	0.222	0.412	0.633	0.316	0.576	0.933	0.843
F fixed	0.583	0.641	0.831	0.682	0.908	1.44	1.07	1.05	1.01
G fixed	0.936	0.951	1.04	1.24	1.61	1.32	1.8	1.33	1.38
H fixed	0.628	1.1	1.01	1.03	1.18	1.25	1.13	1.14	1.08
I fixed	1.1	0.515	0.595	0.683	0.38	0.578	0.728	0.783	0.787
K fixed	2.3	2.56	2.29	2.28	0.958	0.787	0.946	1.04	1.14
L fixed	1.53	0.724	0.838	0.663	0.945	0.713	0.901	0.82	0.757
M fixed	1.57	0.756	0.71	0.714	1.33	0.857	1.11	0.939	0.947
N fixed	0.754	0.835	0.911	1.03	1.28	0.95	0.939	0.96	0.899
P fixed	0.276	0.96	1.18	1.05	0.601	0.622	0.891	0.953	1.27
Q fixed	1.08	0.752	0.736	0.988	1.04	0.816	0.823	0.946	0.856
R fixed	2.66	3.56	3.06	2.38	1.58	1.72	1.18	1.13	1.15
V fixed	0.809	0.552	0.671	0.702	0.495	0.597	0.582	0.769	0.879
W fixed	0.791	0.737	0.807	1	0.856	1.52	1.28	1.17	0.993
Y fixed	0.781	0.919	0.902	0.826	1.41	2.03	1.44	1.1	1.04
pThr fixed	0.449	0.389	0.599	0.309	0.335	0.494	0.678	0.852	0.895
pTyr fixed	0.308	0.266	0.551	0.392	1.24	0.596	0.873	0.888	1.1
